{"source": "patent US11053476B2", "about": "“Generation of cancer stem cells and use thereof” (EXOSTEM BIOTEC LTD., priority 2016, dated 2021)", "type_in_all_cases": "cell-based", "key": {"[1]": {"system": "Sox2", "assay": "Sox2 expression in generated CSCs, factor added to basic protocol", "procedure": "(§1) In order to generate CSCs in vitro, both primary differentiated cancer cells (primary glioma cells) as well as cells from a cancer cell line (U87 cells) were obtained. Glioma cells and U87 cells were trypsinized, and washed three times with medium +10% FCS. The cells were then resuspended in medium that was brought to a pH of 6.0 and were placed on a rotator and incubated for 45-90 minutes. The cells were then incubated in medium supplemented with EGF and FGF. The cells were optionally kept in mild hypoxic conditions (2-3% oxygen) during this second incubation and were then plated on bacterial plates.\n(§2) Tumorspheres formed on these plates within one week and were removed from the cells that had attached to the dish. The tumorspheres were disaggregated and the cells were re-plated at limiting dilution to generate secondary spheroids. The secondary tumorspheres were then characterized for CSC specific markers, the ability to self-renew and the ability to generate tumors that recapitulate the parental tumors.\nKnowing that the basic protocol for generating CSCs (acid, EGF/FGF and two rounds of sphere generation) was successful; several modifications to the protocol were examined. […] Second, a wide range of factors were found, that when supplemented to the EGF and FGF containing media, increased the efficacy of the protocol, either by increasing the number of CSCs produced or by increasing their stemness."}, "[2]": {"system": "differentiated cancer cells", "assay": "Efficacy and penetrance of dedifferentiation with transcription and secreted factors", "settings": "expression in the cells or in their media during second incubation or tumorsphere formation", "procedure": "as §1, §2\nLastly, several transcription factors and secreted factors that are known to enhance stemness or cancer progression were introduced into the differentiated cells during the second incubation or during tumorsphere formation."}, "[3]": {"system": "CSCs generated from differentiated cancer cells", "assay": "Self-renewal of CSCs (secondary tumorspheres) generated from differentiated cancer cells, factor added to basic protocol", "procedure": "as §1, §2\nKnowing that the basic protocol for generating CSCs (acid, EGF/FGF and two rounds of sphere generation) was successful; several modifications to the protocol were examined. […]"}}, "data": [{"molecule": "PKC epsilon: protein kinase C epsilon; activators or overexpression (protein, UniProt Q02156 1-737, looked up) Protein kinase C epsilon type: MVVFNGLLKIKICEAVSLKPTAWSLRHAVGPRPQTFLLDPYIALNVDDSRIGQTATKQKTNSPAWHDEFVTDVCNGRKIELAVFHDAPIGYDDFVANCTIQFEELLQNGSRHFEDWIDLEPEGRVYVIIDLSGSSGEAPKDNEERVFRERMRPRKRQGAVRRRVHQVNGHKFMATYLRQPTYCSHCRDFIWGVIGKQGYQCQVCTCVVHKRCHELIITKCAGLKKQETPDQVGSQRFSVNMPHKFGIHNYKVPTFCDHCGSLLWGLLRQGLQCKVCKMNVHRRCETNVAPNCGVDARGIAKVLADLGVTPDKITNSGQRRKKLIAGAESPQPASGSSPSEEDRSKSAPTSPCDQEIKELENNIRKALSFDNRGEEHRAASSPDGQLMSPGENGEVRQGQAKRLGLDEFNFIKVLGKGSFGKVMLAELKGKDEVYAVKVLKKDVILQDDDVDCTMTEKRILALARKHPYLTQLYCCFQTKDRLFFVMEYVNGGDLMFQIQRSRKFDEPRSRFYAAEVTSALMFLHQHGVIYRDLKLDNILLDAEGHCKLADFGMCKEGILNGVTTTTFCGTPDYIAPEILQELEYGPSVDWWALGVLMYEMMAGQPPFEADNEDDLFESILHDDVLYPVWLSKEAVSILKAFMTKNPHKRLGCVASQNGEDAIKQHPFFKEIDWVLLEQKKIKPPFKPRIKTKRDVNNFDQDFTREEPVLTLVDEAIVKQINQEEFKGFSYFGEDLMP", "values": [{"measurement": "effect on Sox2 expression", "setting": "[1]; PKC activation, FIG. 6B", "value": "increase Sox2 expression"}, {"measurement": "effectiveness on Sox2 expression compared with PMA", "setting": "[1]; PKC activation, FIG. 6B", "value": "more effective that PMA"}]}, {"molecule": "RUNX2: transcription or secreted factor expressed in the cells or in their media (protein, UniProt Q13950 1-521, looked up) Runt-related transcription …: MASNSLFSTVTPCQQNFFWDPSTSRRFSPPSSSLQPGKMSDVSPVVAAQQQQQQQQQQQQQQQQQQQQQQQEAAAAAAAAAAAAAAAAAVPRLRPPHDNRTMVEIIADHPAELVRTDSPNFLCSVLPSHWRCNKTLPVAFKVVALGEVPDGTVVTVMAGNDENYSAELRNASAVMKNQVARFNDLRFVGRSGRGKSFTLTITVFTNPPQVATYHRAIKVTVDGPREPRRHRQKLDDSKPSLFSDRLSDLGRIPHPSMRVGVPPQNPRPSLNSAPSPFNPQGQSQITDPRQAQSSPPWSYDQSYPSYLSQMTSPSIHSTTPLSSTRGTGLPAITDVPRRISDDDTATSDFCLWPSTLSKKSQAGASELGPFSDPRQFPSISSLTESRFSNPRMHYPATFTYTPPVTSGMSLGMSATTHYHTYLPPPYPGSSQSQSGPFQTSSTPYLYYGTSSGSYQFPMVPGGDRSPSRMLPPCTTTSNGSTLLNPNLPNQNDGVDADGSHSSSPTVLNSSGRMDESVWRPY", "values": [{"measurement": "effect on dedifferentiation brought about by the standard protocol", "setting": "[2]", "value": "increase the efficacy and penetrance of the dedifferentiation"}]}, {"molecule": "COX2: transcription or secreted factor expressed in the cells or in their media (protein, UniProt P35354 18-604, looked up) Prostaglandin G/H synthase 2: ANPCCSHPCQNRGVCMSVGFDQYKCDCTRTGFYGENCSTPEFLTRIKLFLKPTPNTVHYILTHFKGFWNVVNNIPFLRNAIMSYVLTSRSHLIDSPPTYNADYGYKSWEAFSNLSYYTRALPPVPDDCPTPLGVKGKKQLPDSNEIVEKLLLRRKFIPDPQGSNMMFAFFAQHFTHQFFKTDHKRGPAFTNGLGHGVDLNHIYGETLARQRKLRLFKDGKMKYQIIDGEMYPPTVKDTQAEMIYPPQVPEHLRFAVGQEVFGLVPGLMMYATIWLREHNRVCDVLKQEHPEWGDEQLFQTSRLILIGETIKIVIEDYVQHLSGYHFKLKFDPELLFNKQFQYQNRIAAEFNTLYHWHPLLPDTFQIHDQKYNYQQFIYNNSILLEHGITQFVESFTRQIAGRVAGGRNVPPAVQKVSQASIDQSRQMKYQSFNEYRKRFMLKPYESFEELTGEKEMSAELEALYGDIDAVELYPALLVEKPRPDAIFGETMVEVGAPFSLKGLMGNVICSPAYWKPSTFGGEVGFQIINTASIQSLICNNVKGCPFTSFSVPDPELIKTVTINASSSRSGLDDINPTVLLKERSTEL", "values": [{"measurement": "effect on dedifferentiation brought about by the standard protocol", "setting": "[2]", "value": "increase the efficacy and penetrance of the dedifferentiation"}]}, {"molecule": "WNT5A: transcription or secreted factor expressed in the cells or in their media (protein, UniProt P41221 62-380, looked up) Protein Wnt-5a: IIGAQPLCSQLAGLSQGQKKLCHLYQDHMQYIGEGAKTGIKECQYQFRHRRWNCSTVDNTSVFGRVMQIGSRETAFTYAVSAAGVVNAMSRACREGELSTCGCSRAARPKDLPRDWLWGGCGDNIDYGYRFAKEFVDARERERIHAKGSYESARILMNLHNNEAGRRTVYNLADVACKCHGVSGSCSLKTCWLQLADFRKVGDALKEKYDSAAAMRLNSRGKLVQVNSRFNSPTTQDLVYIDPSPDYCVRNESTGSLGTQGRLCNKTSEGMDGCELMCCGRGYDQFKTVQTERCHCKFHWCCYVKCKKCTEIVDQFVCK", "values": [{"measurement": "effect on dedifferentiation brought about by the standard protocol", "setting": "[2]", "value": "increase the efficacy and penetrance of the dedifferentiation"}]}, {"molecule": "Lin-28: overexpressed factor, called miR in b196 and protein in b22 (protein, UniProt Q9H9Z2 2-209, looked up) Protein lin-28 homolog A: GSVSNQQFAGGCAKAAEEAPEEAPEDAARAADEPQLLHGAGICKWFNVRMGFGFLSMTARAGVALDPPVDVFVHQSKLHMEGFRSLKEGEAVEFTFKKSAKGLESIRVTGPGGVFCIGSERRPKGKSMQKRRSKGDRCYNCGGLDHHAKECKLPPQPKKCHFCQSISHMVASCPLKAQQGPSAQGKPTYFREEEEEIHSPTLLPEAQN", "values": [{"measurement": "self-renewal over the basic protocol", "setting": "[3]; overexpressed miR or polynucleotide inhibitor, FIG. 7A", "value": "improved"}, {"measurement": "Sox2 expression over the basic protocol", "setting": "[1]; overexpressed miR or polynucleotide inhibitor, FIG. 7B", "value": "improved"}]}, {"molecule": "CEBP/B: transcription or secreted factor expressed in the cells or in their media (protein, UniProt P17676 1-345, looked up) CCAAT/enhancer-binding …: MQRLVAWDPACLPLPPPPPAFKSMEVANFYYEADCLAAAYGGKAAPAAPPAARPGPRPPAGELGSIGDHERAIDFSPYLEPLGAPQAPAPATATDTFEAAPPAPAPAPASSGQHHDFLSDLFSDDYGGKNCKKPAEYGYVSLGRLGAAKGALHPGCFAPLHPPPPPPPPPAELKAEPGFEPADCKRKEEAGAPGGGAGMAAGFPYALRAYLGYQAVPSGSSGSLSTSSSSSPPGTPSPADAKAPPTACYAGAAPAPSQVKSKAKKTVDKHSDEYKIRRERNNIAVRKSRDKAKMRNLETQHKVLELTAENERLQKKVEQLSRELSTLRNLFKQLPEPLLASSGHC", "values": [{"measurement": "effect on dedifferentiation brought about by the standard protocol", "setting": "[2]", "value": "increase the efficacy and penetrance of the dedifferentiation"}]}, {"molecule": "IL10: anti-inflammatory cytokine (protein, UniProt P22301 19-178, looked up) Interleukin-10: SPGQGTQSENSCTHFPGNLPNMLRDLRDAFSRVKTFFQMKDQLDNLLLKESLLEDFKGYLGCQALSEMIQFYLEEVMPQAENQDPDIKAHVNSLGENLKTLRLRLRRCHRFLPCENKSKAVEQVKNAFNKLQEKGIYKAMSEFDIFINYIEAYMTMKIRN", "values": [{"measurement": "effect on rate of self-renewal", "setting": "[3]; cytokine supplemented to second incubation media, FIG. 4A", "value": "no effect"}, {"measurement": "effect on Sox2 expression", "setting": "[1]; cytokine supplemented to second incubation media, FIG. 4B", "value": "no effect"}]}]}
